Reference: the supplement of paper PMC10567573

B1: ZNF649 (parent)
chain: MTKAQESLTLEDVAVDFTWEEWQF
B2: TOR1AIP2 (parent)
chain: AGQEGEDTLRRRLLAPEAGSHPQQ

Variants of: B1
Assay: protein stability index of a GFP-peptide fusion (GPS, HEK-293T) (PSI 1-6); higher = more stable
Settings: c terminus: a fixed tail appended
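Note: lentivirally expressed fusions sorted by FACS into six bins by GFP to DsRed ratio, PSI derived from sequencing read proportions per bin multiplied by bin number.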

| Variant | protein stability index |
| --- | --- |
| VTKAQESLTLEDVAVDFTWEEWQF [M1V] | 3.07 |
| CTKAQESLTLEDVAVDFTWEEWQF [M1C] | 2.82 |
| TTKAQESLTLEDVAVDFTWEEWQF [M1T] | 3.79 |
| GTKAQESLTLEDVAVDFTWEEWQF [M1G] | 3.43 |
| ATKAQESLTLEDVAVDFTWEEWQF [M1A] | 3.33 |
| FTKAQESLTLEDVAVDFTWEEWQF [M1F] | 2.69 |
| KTKAQESLTLEDVAVDFTWEEWQF [M1K] | 3.29 |
| HTKAQESLTLEDVAVDFTWEEWQF [M1H] | 3.72 |
| ETKAQESLTLEDVAVDFTWEEWQF [M1E] | 4.48 |
| MTKSQESLTLEDVAVDFTWEEWQF [A4S] | 3.45 |
| MTKDQESLTLEDVAVDFTWEEWQF [A4D] | 3.48 |
| MTKVQESLTLEDVAVDFTWEEWQF [A4V] | 2.52 |
| MTKLQESLTLEDVAVDFTWEEWQF [A4L] | 3.71 |
| MTKQQESLTLEDVAVDFTWEEWQF [A4Q] | 3.18 |
| MTKYQESLTLEDVAVDFTWEEWQF [A4Y] | 2.56 |
| MTKKQESLTLEDVAVDFTWEEWQF [A4K] | 3.15 |
| MTKTQESLTLEDVAVDFTWEEWQF [A4T] | 3.11 |
| MTKWQESLTLEDVAVDFTWEEWQF [A4W] | 2.15 |
| MTKIQESLTLEDVAVDFTWEEWQF [A4I] | 2.89 |
| MTKMQESLTLEDVAVDFTWEEWQF [A4M] | 2.5 |
| MTKEQESLTLEDVAVDFTWEEWQF [A4E] | 3.66 |
| MTKPQESLTLEDVAVDFTWEEWQF [A4P] | 3.75 |

| Variant | protein stability index |
| --- | --- |
| MTKGQESLTLEDVAVDFTWEEWQF [A4G] | 2.94 |
| MTKFQESLTLEDVAVDFTWEEWQF [A4F] | 2.51 |
| MTKNQESLTLEDVAVDFTWEEWQF [A4N] | 3.04 |
| MTKRQESLTLEDVAVDFTWEEWQF [A4R] | 2.97 |
| MTKHQESLTLEDVAVDFTWEEWQF [A4H] | 3.48 |
| MTKCQESLTLEDVAVDFTWEEWQF [A4C] | 2.4 |
| MTKAPESLTLEDVAVDFTWEEWQF [Q5P] | 3.04 |
| MTKAHESLTLEDVAVDFTWEEWQF [Q5H] | 3.2 |
| MTKANESLTLEDVAVDFTWEEWQF [Q5N] | 3.33 |
| MTKAMESLTLEDVAVDFTWEEWQF [Q5M] | 2.92 |
| MTKARESLTLEDVAVDFTWEEWQF [Q5R] | 2.46 |
| MTKAWESLTLEDVAVDFTWEEWQF [Q5W] | 1.49 |
| MTKAIESLTLEDVAVDFTWEEWQF [Q5I] | 3.02 |
| MTKAKESLTLEDVAVDFTWEEWQF [Q5K] | 2.83 |
| MTKAEESLTLEDVAVDFTWEEWQF [Q5E] | 3.35 |
| MTKALESLTLEDVAVDFTWEEWQF [Q5L] | 2.97 |
| MTKAFESLTLEDVAVDFTWEEWQF [Q5F] | 3.12 |
| MTKACESLTLEDVAVDFTWEEWQF [Q5C] | 2.78 |
| MTKAVESLTLEDVAVDFTWEEWQF [Q5V] | 3.37 |
| MTKAGESLTLEDVAVDFTWEEWQF [Q5G] | 2.84 |
| MTKASESLTLEDVAVDFTWEEWQF [Q5S] | 3.96 |
| MTKATESLTLEDVAVDFTWEEWQF [Q5T] | 3.04 |

| Variant | protein stability index |
| --- | --- |
| MTKAYESLTLEDVAVDFTWEEWQF [Q5Y] | 2.32 |
| MTKADESLTLEDVAVDFTWEEWQF [Q5D] | 3.4 |
| MTKAAESLTLEDVAVDFTWEEWQF [Q5A] | 3.02 |
| MTKAQNSLTLEDVAVDFTWEEWQF [E6N] | 2.88 |
| MTKAQHSLTLEDVAVDFTWEEWQF [E6H] | 2.2 |
| MTKAQSSLTLEDVAVDFTWEEWQF [E6S] | 2.33 |
| MTKAQYSLTLEDVAVDFTWEEWQF [E6Y] | 1.53 |
| MTKAQKSLTLEDVAVDFTWEEWQF [E6K] | 3.02 |
| MTKAQTSLTLEDVAVDFTWEEWQF [E6T] | 2.71 |
| MTKAQVSLTLEDVAVDFTWEEWQF [E6V] | 1.75 |
| MTKAQGSLTLEDVAVDFTWEEWQF [E6G] | 2.74 |
| MTKAQCSLTLEDVAVDFTWEEWQF [E6C] | 2.52 |
| MTKAQASLTLEDVAVDFTWEEWQF [E6A] | 1.87 |
| MTKAQQSLTLEDVAVDFTWEEWQF [E6Q] | 2.94 |
| MTKAQISLTLEDVAVDFTWEEWQF [E6I] | 4.31 |
| MTKAQLSLTLEDVAVDFTWEEWQF [E6L] | 2.43 |
| MTKAQDSLTLEDVAVDFTWEEWQF [E6D] | 3.14 |
| MTKAQPSLTLEDVAVDFTWEEWQF [E6P] | 2.78 |
| MTKAQFSLTLEDVAVDFTWEEWQF [E6F] | 1.89 |
| MTKAQRSLTLEDVAVDFTWEEWQF [E6R] | 2.88 |
| MTKAQMSLTLEDVAVDFTWEEWQF [E6M] | 1.92 |
| MTKAQWSLTLEDVAVDFTWEEWQF [E6W] | 1.95 |

Variants of: B2
Assay: as above
Settings: c terminus: a fixed tail appended

| Variant | protein stability index |
| --- | --- |
| AGQEGEDTLRRRLLAPEAGSHPVQ [Q23V] | 2.69 |
| AGQEGEDTLRRRLLAPEAGSHPSQ [Q23S] | 1.85 |
| AGQEGEDTLRRRLLAPEAGSHPRQ [Q23R] | 2.54 |
| AGQEGEDTLRRRLLAPEAGSHPKQ [Q23K] | 2.74 |
| AGQEGEDTLRRRLLAPEAGSHPIQ [Q23I] | 1.73 |
| AGQEGEDTLRRRLLAPEAGSHPNQ [Q23N] | 2.17 |
| AGQEGEDTLRRRLLAPEAGSHPYQ [Q23Y] | 2.01 |
| AGQEGEDTLRRRLLAPEAGSHPWQ [Q23W] | 1.81 |
| AGQEGEDTLRRRLLAPEAGSHPPQ [Q23P] | 3.1 |
| AGQEGEDTLRRRLLAPEAGSHPMQ [Q23M] | 2.24 |
| AGQEGEDTLRRRLLAPEAGSHPLQ [Q23L] | 2.45 |
| AGQEGEDTLRRRLLAPEAGSHPTQ [Q23T] | 1.61 |
| AGQEGEDTLRRRLLAPEAGSHPQC [Q24C] | 1.85 |
| AGQEGEDTLRRRLLAPEAGSHPQP [Q24P] | 2.41 |
| AGQEGEDTLRRRLLAPEAGSHPQF [Q24F] | 2.37 |
| AGQEGEDTLRRRLLAPEAGSHPQS [Q24S] | 2.4 |
| AGQEGEDTLRRRLLAPEAGSHPQV [Q24V] | 2.58 |
| AGQEGEDTLRRRLLAPEAGSHPQI [Q24I] | 2.16 |
| AGQEGEDTLRRRLLAPEAGSHPQY [Q24Y] | 2.46 |
| AGQEGEDTLRRRLLAPEAGSHPQL [Q24L] | 1.79 |
| AGQEGEDTLRRRLLAPEAGSHPQD [Q24D] | 2.38 |
| AGQEGEDTLRRRLLAPEAGSHPQM [Q24M] | 2.81 |
| AGQEGEDTLRRRLLAPEAGSHPQW [Q24W] | 2.17 |
| AGQEGEDTLRRRLLAPEAGSHPQT [Q24T] | 2.22 |
| AGQEGEDTLRRRLLAPEAGSHPQE [Q24E] | 2.52 |
| AGQEGEDTLRRRLLAPEAGSHPQH [Q24H] | 1.7 |
| AGQEGEDTLRRRLLAPEAGSHPQN [Q24N] | 2.25 |
| AGQEGEDTLRRRLLAPEAGSHPQR [Q24R] | 2.05 |
